# Target: SARS-CoV-2 Wild-type (D614G) spike glycoprotein (SARS-CoV-2) (UniProt P0DTC2)
# Assay: cell-based or functional assay
# VYD224 (antibody), sequence (VH): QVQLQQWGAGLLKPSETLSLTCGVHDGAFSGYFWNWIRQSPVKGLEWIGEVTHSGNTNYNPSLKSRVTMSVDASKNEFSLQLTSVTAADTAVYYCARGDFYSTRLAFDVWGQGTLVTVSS
# VYD224 (antibody), sequence (VL): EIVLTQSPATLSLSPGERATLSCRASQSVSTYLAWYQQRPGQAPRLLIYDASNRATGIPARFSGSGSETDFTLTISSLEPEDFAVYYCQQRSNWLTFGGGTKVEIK
# VYD222 (antibody), sequence (VH): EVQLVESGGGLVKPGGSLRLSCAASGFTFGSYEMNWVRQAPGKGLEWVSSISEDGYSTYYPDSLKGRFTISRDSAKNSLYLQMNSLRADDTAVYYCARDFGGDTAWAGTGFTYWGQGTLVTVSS
# VYD222 (antibody), sequence (VL): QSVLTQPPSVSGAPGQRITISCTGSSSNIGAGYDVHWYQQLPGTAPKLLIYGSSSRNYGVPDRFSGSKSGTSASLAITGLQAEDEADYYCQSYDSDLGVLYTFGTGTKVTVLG
# VYD223 (antibody), sequence (VH): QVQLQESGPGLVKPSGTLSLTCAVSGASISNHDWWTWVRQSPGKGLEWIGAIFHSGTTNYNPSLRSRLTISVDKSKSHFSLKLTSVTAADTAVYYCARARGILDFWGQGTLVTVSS
# VYD223 (antibody), sequence (VL): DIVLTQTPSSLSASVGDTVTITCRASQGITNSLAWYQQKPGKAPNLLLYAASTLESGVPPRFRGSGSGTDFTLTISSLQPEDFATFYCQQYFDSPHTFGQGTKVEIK
# ADI-58125 (antibody), sequence (VH): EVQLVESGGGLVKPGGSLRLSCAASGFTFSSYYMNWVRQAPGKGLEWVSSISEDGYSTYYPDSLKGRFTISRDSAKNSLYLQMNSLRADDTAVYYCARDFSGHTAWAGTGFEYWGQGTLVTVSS
# ADI-58125 (antibody), sequence (VL): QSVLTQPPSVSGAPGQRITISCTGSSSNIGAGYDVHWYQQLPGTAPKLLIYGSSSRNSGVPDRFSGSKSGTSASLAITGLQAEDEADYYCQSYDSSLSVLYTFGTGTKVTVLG
substance,measurement,value
LY-CoV1404 (antibody),"IC50, authentic virus neutralization",0.021 µg/mL
same,"IC90, authentic virus neutralization",0.09 µg/mL
VYD223 (antibody),"IC50, authentic virus neutralization",0.012 µg/mL
same,"IC90, authentic virus neutralization",0.014 µg/mL
CoV2-2130 (antibody),"IC50, authentic virus neutralization",0.016 µg/mL
same,"IC90, authentic virus neutralization",0.074 µg/mL
ADI-58125 (antibody),"IC50, authentic virus neutralization",0.052 µg/mL
same,"IC90, authentic virus neutralization",0.192 µg/mL
VYD222 (antibody),"IC50, authentic virus neutralization",0.033 µg/mL
same,"IC50, lentivirus-based pseudovirus neutralization",0.03 µg/mL
same,"IC90, authentic virus neutralization",0.193 µg/mL
VYD224 (antibody),"IC50, authentic virus neutralization",0.01 µg/mL
same,"IC50, lentivirus-based pseudovirus neutralization",0.03 µg/mL
same,"IC90, authentic virus neutralization",0.037 µg/mL

# — US20260078171A1
